We go through two molecules from publication PMC5566391.

Assay [1] concerns the target TRAIL-Trimer fusion protein (human) (UniProt P50591). The experiment in a line: SDS-PAGE under non-reducing and reducing conditions; 2 µg of purified protein on 10% or 15% SDS-PAGE, Coomassie Blue; TRAIL-Trimer also by western blot. For orientation: Immunoblotting shows a protein as a band on a membrane.
For assay [2], the target named is T1, TRAIL-Fc fusion protein (human), P50591.
T1 chain: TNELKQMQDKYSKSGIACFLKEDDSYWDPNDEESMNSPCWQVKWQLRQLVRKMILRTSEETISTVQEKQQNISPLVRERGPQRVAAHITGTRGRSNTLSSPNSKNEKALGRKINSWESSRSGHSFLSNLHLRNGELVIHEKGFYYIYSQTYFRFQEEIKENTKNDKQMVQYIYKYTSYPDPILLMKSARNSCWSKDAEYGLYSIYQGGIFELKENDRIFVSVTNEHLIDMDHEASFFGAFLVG
The description is as above. As to conditions: remark: other sources report otherwise.

With “TRAIL-Trimer fusion protein (from UniProt P50591 39-281) (ligand)”, in assay [1], the stoichiometry N is 3.

B1: TRAIL-Fc fusion protein, P50591 39-281 (Fc fusion)
chain: T1 chain
B1 came in with a stoichiometry N in assay [2] of 2.

For orientation: stoichiometry N means the number of molecules, sites or subunits per partner or assembly.
